In the assay the target is endogenous POLR2A/RPB1, the largest subunit of RNA pol II, of HepG2 cells (human (endogenous in HepG2)) (UniProt P24928). Nature of the assay: proximity ligation; fixed HepG2 cells (SHP-1 WT; SHP-1 KO as negative control), anti-SHP-1 and anti-RPB1 antibodies, Duolink In Situ kit; nuclear dots counted in at least 400 nuclei.

Chain of endogenous SHP-1 of HepG2 cells, P29350 1-595 (natural protein; other documents disagree on this pair) (P29350 whole entry): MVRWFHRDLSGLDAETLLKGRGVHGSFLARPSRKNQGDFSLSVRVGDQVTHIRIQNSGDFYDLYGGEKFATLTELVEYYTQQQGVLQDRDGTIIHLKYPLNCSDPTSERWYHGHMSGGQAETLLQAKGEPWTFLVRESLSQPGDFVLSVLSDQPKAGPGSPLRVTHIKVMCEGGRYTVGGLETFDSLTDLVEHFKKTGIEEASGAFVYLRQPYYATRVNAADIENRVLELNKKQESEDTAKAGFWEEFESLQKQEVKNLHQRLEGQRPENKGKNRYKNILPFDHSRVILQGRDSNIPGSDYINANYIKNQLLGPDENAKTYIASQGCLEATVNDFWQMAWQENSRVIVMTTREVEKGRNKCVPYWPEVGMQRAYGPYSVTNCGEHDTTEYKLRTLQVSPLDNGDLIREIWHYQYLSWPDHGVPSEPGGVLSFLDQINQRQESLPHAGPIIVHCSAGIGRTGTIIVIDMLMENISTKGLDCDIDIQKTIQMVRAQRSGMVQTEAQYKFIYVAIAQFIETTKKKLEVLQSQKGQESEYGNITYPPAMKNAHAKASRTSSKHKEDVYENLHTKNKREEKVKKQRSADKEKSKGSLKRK

With “endogenous SHP-1 of HepG2 cells, P29350 1-595 (natural protein; other documents disagree on this pair)”, the percent of nuclei with PLA dots was 44 % of nuclei.
